Test results as given in paper PMC2213439.
Each block holds one substance with its values, some of them ahead of it.

Key:
Assay in all cases: cell adhesion assay
[1] = target: E-cadherin-Fc K28A (human)
[2] = target: E-cadherin-Fc K30A (human)
[3] = target: E-cadherin-Fc D44A (human)
[4] = target: E-cadherin-Fc E31D (human)
[5] = target: E-cadherin-Fc E31A (human)
[6] = target: E-cadherin-Fc K33A (human)
[7] = target: E-cadherin-Fc K25A (human)
[8] = target: E-cadherin-Fc S83A (human) (UniProt P12830)
[9] = target: E-cadherin-Fc KEG30-32RDT (human) (UniProt P12830)
[10] = target: E-cadherin-Fc N27A (human)
[11] = target: E-cadherin-Fc E89A (human)
[12] = target: E-cadherin-Fc N86A (human)
[13] = target: E-cadherin-Fc E56A (human)
[14] = target: Purified human IgG1 (human)

- adhesion as percent of wild type (% of wild-type) [1]: > 82
- percent of cells bound [1]: 58%
- adhesion as percent of wild type (% of wild-type) [2]: > 82
- percent of cells bound [2]: 58%
- adhesion as percent of wild type (% of wild-type) [3]: > 82
- percent of cells bound [3]: 59%
- adhesion as percent of wild type (% of wild-type) [4]: < 2
- adhesion as percent of wild type (% of wild-type) [5]: < 2
- adhesion as percent of wild type (% of wild-type) [6]: > 82
- percent of cells bound [6]: 60%
- adhesion as percent of wild type (% of wild-type) [7]: > 82
- percent of cells bound [7]: 69%
- adhesion as percent of wild type (% of wild-type) [8]: > 82
- percent of cells bound [8]: 68%
- adhesion as percent of wild type (% of wild-type) [9]: < 2
- adhesion as percent of wild type (% of wild-type) [10]: > 82
- percent of cells bound [10]: 58%
- adhesion as percent of wild type (% of wild-type) [11]: 20
- percent of cells bound [11]: 12%
- adhesion as percent of wild type (% of wild-type) [12]: > 82
- percent of cells bound [12]: 57%
- adhesion as percent of wild type (% of wild-type) [13]: > 82
- percent of cells bound [13]: 60%
Substance: Integrin αEβ7 on human IEL-496 T cells (from UniProt P38570 19-1179; P26010 20-798) (complex)

- adhesion as percent of wild type (% of wild-type) [1]: 94
- adhesion as percent of wild type (% of wild-type) [2]: 99
- adhesion as percent of wild type (% of wild-type) [3]: 94
- percent of cells bound [4]: 41%
- percent of cells bound [5]: 41%
- adhesion as percent of wild type (% of wild-type) [6]: 91
- adhesion as percent of wild type (% of wild-type) [7]: 76
- adhesion as percent of wild type (% of wild-type) [8]: 105
- adhesion as percent of wild type (% of wild-type) [10]: 62
- adhesion as percent of wild type (% of wild-type) [11]: 2
- adhesion as percent of wild type (% of wild-type) [12]: 93
- adhesion as percent of wild type (% of wild-type) [13]: 90
Substance: E-cadherin on MCF-7 human breast epithelial cells (from UniProt P12830 155-882) (natural protein)

- adhesion as percent of wild type (% of adhesion to wild-type) [1]: 79
- adhesion as percent of wild type (% of adhesion to wild-type) [2]: 53
- adhesion as percent of wild type (% of adhesion to wild-type) [3]: 105
- adhesion as percent of wild type (% of adhesion to wild-type) [6]: 104
- adhesion as percent of wild type (% of adhesion to wild-type) [7]: 87
- adhesion as percent of wild type (% of adhesion to wild-type) [8]: 80
- adhesion as percent of wild type (% of adhesion to wild-type) [10]: 57
- percent of cells bound [14]: < 1%
- adhesion as percent of wild type (% of adhesion to wild-type) [12]: 86
- adhesion as percent of wild type (% of adhesion to wild-type) [13]: 102
Substance: Integrin αEβ7 on K562 transfectants (K562-αEβ7) (from UniProt P38570 19-1179; P26010 20-798) (complex)
